15 variants from the supplement of paper PMC7125110 can be followed below.

B1: glmS ribozyme (parent)
chain: AUAAAAGCGCCAGAACUACAGAAAUGUAGUUGACGAGGAGGAGGUUUAUCGAAUUUUCGGCGGAUGCCUCCAAA

± gives the standard error. Fewer inactive variants are shown than the library holds. Bounds are passed on as bounds.

Conditions in all cases: with glucosamine-6-phosphate
In data set [1] the parent is B1. The data set is described as follows: self-cleavage kobs at 40 uM GlcN6P; higher = faster cleavage; RNA array. In a few lines: (§1)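 Barcoded ribozyme variants were transcribed in situ on sequenced MiSeq chips by E. coli RNA polymerase. At 37 °C, a hybridised Cy3 probe tracked them while glucosamine-6-phosphate (40 μM to 10 mM) in HEPES/KCl/Mg(OAc)2 buffer flowed in and tiles were imaged over ~14 h. Per-tile medians of signals normalised to baseline and to non-cleaving reference variants were fit to one- or two-exponential decays, giving kobs. kcat and KM came from weighted Michaelis–Menten fits across concentrations.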

In data set [2] the parent is B1. Description: self-cleavage kobs at 2500 uM GlcN6P; higher = faster cleavage; RNA array. Put shortly: as §1
Data set [3] covers variants of B1. The data set is described as follows: self-cleavage kobs at 10000 uM GlcN6P; higher = faster cleavage; RNA array. Put shortly:
as §1

Variants of B1 are the subject of data set [4]. The data set is described as follows: self-cleavage kobs at 160 uM GlcN6P; higher = faster cleavage; RNA array. Put shortly:
as §1

In data set [5] the parent is B1. Description: self-cleavage kobs at 640 uM GlcN6P; higher = faster cleavage; RNA array. Put shortly:
as §1

Regarding AUAAAAGCGCACGAACUACAGAAAUGUAGUUGACGAGGAGGAGGUUUAUCGAAUUUUCGGCGGCUGCCUCCAAA [C11A A12C A64C], the “self-cleavage kobs at 40 uM GlcN6P” value in data set [1] was below 1e-05 s⁻¹. The “self-cleavage kobs at 2500 uM GlcN6P” value in data set [2] was below 1e-05 s⁻¹. In addition, in data set [3], the “self-cleavage kobs at 10000 uM GlcN6P” value was below 1e-05 s⁻¹.

As to AUAAAAGCGCCAGAACUACAGAAAUGUAGUUGACGAGCUGGGGGUUUAUCGAAAUUUCGGCGGAUGGCUUCAAA [G38C A39U A42G U54A C67G C70U], the “self-cleavage kobs at 40 uM GlcN6P” value in data set [1] is below 1e-05 s⁻¹.

As to AUAAAAGCGCCAGAACUACAGAAAUGUAGUUGACGAGGAGGAGUUUUAUCGAGUUUUCGGCGGAUGCCUACAAA [G44U A53G C70A], in data set [1], the “self-cleavage kobs at 40 uM GlcN6P” value is below 1e-05 s⁻¹. The “self-cleavage kobs at 2500 uM GlcN6P” value in data set [2] was below 1e-05 s⁻¹. In data set [3], the “self-cleavage kobs at 10000 uM GlcN6P” value is below 1e-05 s⁻¹.

Consider AUAAAAGCGCCAGAACUACAGAAAUGUAGUUGACGAGGAGGAGGUUUAUCGUAUUUUCUGCGGAUGCCUCCAAA [A52U G59U], for which, in data set [1], the “self-cleavage kobs at 40 uM GlcN6P” value was below 1e-05 s⁻¹. Also, in data set [4], the “self-cleavage kobs at 160 uM GlcN6P” value was below 1e-05 s⁻¹. For the same variant, in data set [5], the “self-cleavage kobs at 640 uM GlcN6P” value is below 1e-05 s⁻¹. For the same variant, in data set [3], the “self-cleavage kobs at 10000 uM GlcN6P” value is below 1e-05 s⁻¹.

Regarding AUAAAAGCGCCAUAAGUACAGAAAUGUAGUUGACGAGGAGGAGGUUUAUCGAAUUUUCGGCGGUUGGCUCCAAA [G13U C16G A64U C67G], the “self-cleavage kobs at 40 uM GlcN6P” value in data set [1] is below 1e-05 s⁻¹. Moreover, the “self-cleavage kobs at 10000 uM GlcN6P” value in data set [3] was below 1e-05 s⁻¹.

For AUAAAAGCCCCGGAACUACAGAAAUGUAGUUGACGACGAGGAGGUUCAUCGAAUUUUCGACGGAUGCCUCUAAA [G9C A12G G37C U47C G60A C71U], in data set [1], the “self-cleavage kobs at 40 uM GlcN6P” value was below 1e-05 s⁻¹. The “self-cleavage kobs at 10000 uM GlcN6P” value in data set [3] was below 1e-05 s⁻¹.

As for AUAAAAGCGGCAGAACUACAGAAAUGUAGUUGACGAGGAGGAGGUUUAGCGAAUUUUCGCCGGAUGCCUCCAAA [C10G U49G G60C], the “self-cleavage kobs at 40 uM GlcN6P” value in data set [1] is below 1e-05 s⁻¹. In data set [5], the “self-cleavage kobs at 640 uM GlcN6P” value was below 1e-05 s⁻¹.

Take AUAAAAGCGCCAGAACUACAGAAAUGUAGUUGACGAGGAGGAGGUUUAUCGAAUUCUCGGCGUAUGCCUCCAAA [U56C G63U]: in data set [1], the “self-cleavage kobs at 40 uM GlcN6P” value was below 1e-05 s⁻¹. Also, the “self-cleavage kobs at 160 uM GlcN6P” value in data set [4] was below 1e-05 s⁻¹. The “self-cleavage kobs at 10000 uM GlcN6P” value in data set [3] was below 1e-05 s⁻¹.

For AUAAAAGCGCCAGAACUACAGAAAUGUAGUUGACGAGGAGGAGGUUUAUCGAAUUUUCAGCGGGUGCCGCCAAA [G59A A64G U69G], the “self-cleavage kobs at 40 uM GlcN6P” value in data set [1] is below 1e-05 s⁻¹.

AUAAAAGCGCCAGAACUACAGAAAUGUAGUUGACGAGGAGGAGGUUUAUCGCAUUUUCGGCCGAUGCCUACAAA [A52C G62C C70A]: in data set [1], the “self-cleavage kobs at 40 uM GlcN6P” value was below 1e-05 s⁻¹.

As for AUAAAAGCGCCAGAACUACAGAAAUGUAGUUGACGAGGAGGAGGUAUCUCGAAUUUUCGGCGGAUGCCUGUAAA [U46A A48C C70G C71U], the “self-cleavage kobs at 40 uM GlcN6P” value in data set [1] was below 1e-05 s⁻¹. In addition, the “self-cleavage kobs at 10000 uM GlcN6P” value in data set [3] is below 1e-05 s⁻¹.

On to AUAAAAGCGCCAGAACUACAGAAAUGUAGUUGACGAGGAGGGGGUUUAUAGAAUUUUCGGCGGGUGCCUGCAAA [A42G C50A A64G C70G], for which, in data set [1], the “self-cleavage kobs at 40 uM GlcN6P” value was below 1e-05 s⁻¹.

AUAAAAGCGCCAGAACUACAGAAAUGUAGUUGACGAGGAGGAGGAUUAUCGUAUUUUCGGCGGAUGCCUCCAAA [U45A A52U]: the “self-cleavage kobs at 40 uM GlcN6P” value in data set [1] was below 1e-05 s⁻¹. The “self-cleavage kobs at 640 uM GlcN6P” value in data set [5] stood at 0.000476 ± 0.00013 s⁻¹. Besides, in data set [3], the “self-cleavage kobs at 10000 uM GlcN6P” value is 0.001 ± 0.00019 s⁻¹.

As to AUAAAAGCGCCAGAGCUACAGAAAUGUAGUUAACGAGGAGGAGGUUUAUCGAAUUUUCGGCGGAUGCCUCCAAA [A15G G32A], the “self-cleavage kobs at 40 uM GlcN6P” value in data set [1] came out at 6.35e-05 ± 1.4e-05 s⁻¹. Besides, the “self-cleavage kobs at 160 uM GlcN6P” value in data set [4] was 0.000114 ± 2.3e-05 s⁻¹. The “self-cleavage kobs at 640 uM GlcN6P” value in data set [5] turned out to be 0.000628 ± 7.7e-05 s⁻¹. Besides, the “self-cleavage kobs at 2500 uM GlcN6P” value in data set [2] amounted to 0.00103 ± 0.00018 s⁻¹. In addition, in data set [3], the “self-cleavage kobs at 10000 uM GlcN6P” value is 0.00311 ± 0.00077 s⁻¹.

With AUAAAAGCGCCAGAACUACAGAAAUGUAGUUGACGAGGAGCCGGUUUAUCGAAUUUUCGGCGGAUGCCUCCAAA [G41C A42C], the “self-cleavage kobs at 40 uM GlcN6P” value in data set [1] was below 1e-05 s⁻¹. Moreover, the “self-cleavage kobs at 160 uM GlcN6P” value in data set [4] is below 1e-05 s⁻¹. Also, the “self-cleavage kobs at 640 uM GlcN6P” value in data set [5] was below 1e-05 s⁻¹. In addition, the “self-cleavage kobs at 2500 uM GlcN6P” value in data set [2] is below 1e-05 s⁻¹.
